Reference: the supplement of paper PMC7877785
± gives the uncertainty stated by the source.

Test: self-splicing fitness, log relative to wild type (ln ratio); higher = more splicing; Tetrahymena group I intron in knt gene, E. coli kanamycin selection, DiMSum; sequences stand for … in CUCUCU…GGAGGGAAAAGUUAUCAGGCAUGCACCUGGUAGCUAGUCUUUAAACCAAUAGAUUGCAUCGGUUUAAAAGGCAAGACCGUCAAAUUGCGGGAAAGGGGUCAACAGCCGUUCAGUACCAAGUCUCAGGGGAAACUUUGAGAUGGCCUUGCAAAGGGUAUGGUAAUAAGCUGACGGACAUGGUCCUAACCACGCAGCCAAGUCCUAAGUCAACAGAUCUUCUGUUGAUAUGGAUGCAGUUCACAGACUAAAUGUCGGUCGGGGAAGAUGUAUUCUUCUCAUAAGAUAUAGUCGGACCUCUCCUUAAUGGGAGCUAGCGGAUGAAGUGAUGCAACACUGGAGCCGCUGGGAACUAAUUUGUAUGCGAAAGUAUAUUGAUUAGUUUUGGAGUACUCGUGGUCG
Procedure, shortened: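 Fitness was computed with DiMSum as the error-weighted combination of replicate fold changes, kanamycin versus none, each normalised to wild type. The library randomised all eight intron nucleotides of the P1ex region, with the intron placed in the knt kanamycin-resistance gene on pET-22b(+) in E. coli BL21(DE3). Six replicate transformations were grown overnight at 37°C or 30°C on LB agar with or without 25 μg/mL kanamycin, plus 100 μg/mL carbenicillin, 50 μM IPTG and 0.2% rhamnose. Pooled colonies were amplicon-sequenced on an Illumina HiSeq 2500.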

Sequence	self-splicing fitness (ln) (30 °C)	self-splicing fitness (ln) (37 °C)
CGUUAGCAAUAUUACGGACC	-0.382 ± 0.14	0.675 ± 0.16
CUUAAGCAAUAUUACGCAGA	-3.41 ± 0.36	-1.93 ± 0.24
GGACAGCAAUAUUACGACCU	-0.544 ± 0.077	-0.13 ± 0.087
CAGCAGCAAUAUUACGUCCA	-2.61 ± 0.3	-0.781 ± 0.22
UGGUAGCAAUAUUACGUUGU	-4.52 ± 0.36	-2.86 ± 0.26
GUGGAGCAAUAUUACGGGAG	-3.74 ± 0.37	-1.8 ± 0.3
CCUAAGCAAUAUUACGACAC	-3.33 ± 0.44	-2.03 ± 0.29
UUUCAGCAAUAUUACGCACA	-0.372 ± 0.12	0.127 ± 0.15
AGGCAGCAAUAUUACGCGGA	-2.08 ± 0.14	-0.664 ± 0.1
CGAUAGCAAUAUUACGCUAG	-1.18 ± 0.1	-1.52 ± 0.19
UUUUAGCAAUAUUACGGCCG	-0.37 ± 0.24	–
GUAAAGCAAUAUUACGCCCU	0.35 ± 0.081	0.185 ± 0.081
UAAUAGCAAUAUUACGAGGG	-3.81 ± 0.39	-1.73 ± 0.23
CUUAAGCAAUAUUACGCUCU	-2.77 ± 0.13	-2.81 ± 0.32
AUGCAGCAAUAUUACGUUCC	-1.55 ± 0.18	-1.17 ± 0.22
CUGUAGCAAUAUUACGCAGC	-3.17 ± 0.41	–
UCGUAGCAAUAUUACGCAAU	-3.7 ± 0.47	-1.99 ± 0.31
CGAUAGCAAUAUUACGUAUC	-3.4 ± 0.3	–
ACGAAGCAAUAUUACGGAGU	-3.82 ± 0.24	-3.07 ± 0.29
CCGCAGCAAUAUUACGAUAG	-0.786 ± 0.052	0.602 ± 0.07
UAGCAGCAAUAUUACGGCUG	-3.72 ± 0.35	-2.64 ± 0.28
GUAUAGCAAUAUUACGGUGG	-2.54 ± 0.1	-2.63 ± 0.17
AAGAAGCAAUAUUACGACUU	-0.363 ± 0.061	-0.819 ± 0.078
GUCAAGCAAUAUUACGUGGA	-2.86 ± 0.17	-1.58 ± 0.12
CUACAGCAAUAUUACGCCAU	-3.16 ± 0.12	-2.45 ± 0.14
AAUCAGCAAUAUUACGGGGU	-3.02 ± 0.17	-1.39 ± 0.12
UAGAAGCAAUAUUACGGGCG	0.0568 ± 0.11	-0.38 ± 0.13

Sequence	self-splicing fitness (ln) (30 °C)	self-splicing fitness (ln) (37 °C)
UACCAGCAAUAUUACGGUAG	-2.15 ± 0.086	-1.16 ± 0.083
UAAGAGCAAUAUUACGGAUU	–	-2.13 ± 0.48
UAGCAGCAAUAUUACGUCCA	-0.794 ± 0.11	-0.187 ± 0.11
AGUCAGCAAUAUUACGAUGA	-0.22 ± 0.057	-0.0826 ± 0.071
CGAGAGCAAUAUUACGGUUG	-2.88 ± 0.14	-1.21 ± 0.14
AGACAGCAAUAUUACGUUUG	-3.34 ± 0.11	-1.22 ± 0.086
GCUGAGCAAUAUUACGAUCG	–	-0.335 ± 0.25
GCCUAGCAAUAUUACGCCAU	–	-1.68 ± 0.45
UGUGAGCAAUAUUACGGAAC	–	-1.72 ± 0.48
GAGUAGCAAUAUUACGUCAG	-2.86 ± 0.17	-2.24 ± 0.34
GGAUAGCAAUAUUACGUACC	-2.37 ± 0.26	-0.601 ± 0.25
CGAUAGCAAUAUUACGAGGC	-3.66 ± 0.35	-1.95 ± 0.48
AACCAGCAAUAUUACGCGGC	-3.79 ± 0.2	-3.14 ± 0.23
AACUAGCAAUAUUACGCUGG	-3.28 ± 0.4	-2.34 ± 0.22
AACUAGCAAUAUUACGUUAG	-3.12 ± 0.17	-3.33 ± 0.26
GGGCAGCAAUAUUACGUGGU	-2.88 ± 0.17	-1.58 ± 0.13
AGCAAGCAAUAUUACGGUCU	-0.739 ± 0.069	0.0318 ± 0.085
GGAAAGCAAUAUUACGCCUC	-1.14 ± 0.16	-1.03 ± 0.19
UGGUAGCAAUAUUACGCCGA	-1.43 ± 0.45	-0.492 ± 0.32
UCUUAGCAAUAUUACGGGUG	-0.927 ± 0.055	-0.165 ± 0.069
CCAAAGCAAUAUUACGCGAU	-3.16 ± 0.21	-2.79 ± 0.28
CUCUAGCAAUAUUACGAGUU	-3.44 ± 0.38	-3.55 ± 0.42
GAUCAGCAAUAUUACGACCC	-2.02 ± 0.2	-1.65 ± 0.29
GCUAAGCAAUAUUACGAGGU	-2.03 ± 0.19	-1.51 ± 0.15
ACGAAGCAAUAUUACGCUAU	-0.928 ± 0.06	-1.48 ± 0.078
GUGGAGCAAUAUUACGUCGU	-1.65 ± 0.21	-1.48 ± 0.26
ACGCAGCAAUAUUACGAAAC	-3.07 ± 0.4	-1.58 ± 0.21

Sequence	self-splicing fitness (ln) (30 °C)	self-splicing fitness (ln) (37 °C)
GGCGAGCAAUAUUACGGGCG	-0.296 ± 0.12	0.0537 ± 0.14
ACCCAGCAAUAUUACGGCAU	-0.483 ± 0.042	0.0474 ± 0.058
CAGCAGCAAUAUUACGGAUG	-2.06 ± 0.097	-1.48 ± 0.098
CUUCAGCAAUAUUACGAUUU	-3.34 ± 0.21	-2.33 ± 0.18
GGGUAGCAAUAUUACGACUU	-1.03 ± 0.13	0.345 ± 0.16
UUUAAGCAAUAUUACGUCCG	-1.17 ± 0.22	0.606 ± 0.21
CAUCAGCAAUAUUACGCAAA	-2.39 ± 0.15	-2.48 ± 0.21
UGGUAGCAAUAUUACGGGUA	-2.28 ± 0.14	-0.719 ± 0.12
AACUAGCAAUAUUACGACCA	-0.23 ± 0.079	0.118 ± 0.1
ACGAAGCAAUAUUACGUCCC	-1.28 ± 0.13	-1.07 ± 0.16
GCUGAGCAAUAUUACGAACA	-3.44 ± 0.36	-2.89 ± 0.38
UUGUAGCAAUAUUACGUUCG	-0.926 ± 0.14	-0.622 ± 0.16
AACUAGCAAUAUUACGUUAC	-1.79 ± 0.13	-1.96 ± 0.2
AAUGAGCAAUAUUACGCUCG	-2.31 ± 0.25	-0.585 ± 0.18
CACCAGCAAUAUUACGCAAC	-2.68 ± 0.48	-2.85 ± 0.28
CGAAAGCAAUAUUACGUCGC	-3.03 ± 0.21	-2.59 ± 0.23
CGAGAGCAAUAUUACGUGUU	-3.83 ± 0.25	-3.71 ± 0.46
ACCAAGCAAUAUUACGUAGG	-2.55 ± 0.068	-2.03 ± 0.096
GUAGAGCAAUAUUACGUUAC	-2.63 ± 0.18	-0.785 ± 0.14
UGGAAGCAAUAUUACGGUCA	-0.00492 ± 0.13	0.828 ± 0.15
UGGGAGCAAUAUUACGCAAA	–	-2.43 ± 0.45
GAACAGCAAUAUUACGCAAG	-3.31 ± 0.23	-1.41 ± 0.17
AAAGAGCAAUAUUACGAUUG	-4.1 ± 0.24	-2.29 ± 0.21
UCUAAGCAAUAUUACGAGGA	-3.5 ± 0.4	-2.72 ± 0.44
GAGGAGCAAUAUUACGCUUC	–	-3.68 ± 0.46
